How the values were obtained:
GST-Smad1 full length = GST-Smad1 full length (UniProt Q15797 Q15797:1-465); assay: EMSA; conditions: tags: GST, E. coli; label: 33P
Smad2 = Smad2 (Homo sapiens, UniProt Q15796 Q15796:1-467); assay: EMSA; conditions: label: 33P
GST-Smad2 full length = GST-Smad2 full length (UniProt Q15796 Q15796:1-467); assay: EMSA; conditions: tags: GST, E. coli; label: 33P
GST-Smad4 full length = GST-Smad4 full length (UniProt Q13485 Q13485:1-552); assay: EMSA; direct and specific; conditions: tags: GST, E. coli; label: 33P
Smad3 = Smad3 (Homo sapiens, UniProt P84022 P84022:1-425); assay: EMSA; not fused to GST; conditions: label: 33P
Smad3, sequence (P84022 whole entry, the tested form may be a part, one chain of several): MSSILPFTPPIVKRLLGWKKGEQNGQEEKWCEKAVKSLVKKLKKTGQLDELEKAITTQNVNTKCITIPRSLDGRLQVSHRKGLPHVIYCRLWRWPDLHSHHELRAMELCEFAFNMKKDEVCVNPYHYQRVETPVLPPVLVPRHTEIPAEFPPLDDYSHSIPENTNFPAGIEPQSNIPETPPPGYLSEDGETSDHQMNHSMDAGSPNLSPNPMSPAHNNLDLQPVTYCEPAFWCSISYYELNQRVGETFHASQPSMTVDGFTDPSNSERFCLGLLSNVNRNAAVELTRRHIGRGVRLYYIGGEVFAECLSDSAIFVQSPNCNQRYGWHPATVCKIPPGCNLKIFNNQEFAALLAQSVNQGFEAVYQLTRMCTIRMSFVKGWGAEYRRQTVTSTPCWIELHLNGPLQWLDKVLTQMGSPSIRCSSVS

GST-Smad2 full length, sequence (Q15796 whole entry, one chain of several): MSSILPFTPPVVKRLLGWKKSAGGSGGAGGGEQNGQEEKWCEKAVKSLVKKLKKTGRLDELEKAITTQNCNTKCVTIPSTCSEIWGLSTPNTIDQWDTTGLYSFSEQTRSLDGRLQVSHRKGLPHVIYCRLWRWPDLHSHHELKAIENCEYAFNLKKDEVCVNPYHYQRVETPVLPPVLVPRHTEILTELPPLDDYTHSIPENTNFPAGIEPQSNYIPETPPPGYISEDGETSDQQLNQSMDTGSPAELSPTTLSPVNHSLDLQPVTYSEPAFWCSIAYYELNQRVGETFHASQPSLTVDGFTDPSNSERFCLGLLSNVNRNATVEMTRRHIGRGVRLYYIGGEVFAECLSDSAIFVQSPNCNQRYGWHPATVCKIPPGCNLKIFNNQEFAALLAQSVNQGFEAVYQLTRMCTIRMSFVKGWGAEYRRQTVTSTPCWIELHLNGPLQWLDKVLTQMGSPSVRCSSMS
Smad2, sequence (Q15796 whole entry, one chain of several): as above
GST-Smad4 full length, sequence (Q13485 whole entry, the tested form may be a part, one chain of several): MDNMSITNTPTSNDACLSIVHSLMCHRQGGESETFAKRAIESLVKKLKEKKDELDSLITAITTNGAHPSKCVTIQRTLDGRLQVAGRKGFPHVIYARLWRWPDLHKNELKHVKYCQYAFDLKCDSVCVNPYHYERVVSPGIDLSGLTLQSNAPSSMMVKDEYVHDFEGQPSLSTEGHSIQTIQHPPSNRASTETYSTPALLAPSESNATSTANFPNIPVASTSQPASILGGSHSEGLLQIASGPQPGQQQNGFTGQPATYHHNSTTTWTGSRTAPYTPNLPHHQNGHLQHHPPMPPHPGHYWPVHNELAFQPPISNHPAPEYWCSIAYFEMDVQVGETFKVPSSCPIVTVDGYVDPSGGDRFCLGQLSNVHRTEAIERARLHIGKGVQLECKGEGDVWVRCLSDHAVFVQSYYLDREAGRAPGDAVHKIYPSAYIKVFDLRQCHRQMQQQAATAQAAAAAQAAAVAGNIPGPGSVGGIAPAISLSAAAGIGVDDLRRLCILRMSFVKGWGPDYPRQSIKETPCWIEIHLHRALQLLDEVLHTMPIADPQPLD
GST-Smad1 full length, sequence (Q15797 whole entry, one chain of several): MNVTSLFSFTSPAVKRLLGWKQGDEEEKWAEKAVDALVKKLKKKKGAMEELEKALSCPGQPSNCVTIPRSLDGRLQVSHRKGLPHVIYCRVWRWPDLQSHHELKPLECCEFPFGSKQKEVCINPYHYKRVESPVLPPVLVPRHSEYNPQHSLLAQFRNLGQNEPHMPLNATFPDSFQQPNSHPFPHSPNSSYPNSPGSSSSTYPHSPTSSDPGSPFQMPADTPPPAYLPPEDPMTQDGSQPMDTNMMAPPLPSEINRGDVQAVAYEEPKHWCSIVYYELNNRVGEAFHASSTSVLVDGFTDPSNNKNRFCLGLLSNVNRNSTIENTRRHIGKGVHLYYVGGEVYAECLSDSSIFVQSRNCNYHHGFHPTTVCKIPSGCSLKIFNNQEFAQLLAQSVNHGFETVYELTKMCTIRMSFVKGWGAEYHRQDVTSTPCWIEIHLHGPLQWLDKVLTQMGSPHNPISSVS

B1: CAGA probe (dsDNA)
DNA 1: TCGAGAGCCAGACAAGGAGCCAGACAAGGAGCCAGACAC
DNA 2: GTGTCTGGCTCCTTGTCTGGCTCCTTGTCTGGCTCTCGA
GST-Smad1 full length
  binding result: no binding
Smad2
  binding result: no binding
GST-Smad2 full length
  binding result: no binding
GST-Smad4 full length
  binding result: binds
Smad3
  binding result: binds
